From the supplement of paper PMC9112550, “Optimization of the antimicrobial peptide Bac7 by deep mutational scanning” (BMC Biology, 2022)

System: Escherichia coli TOP10
Test: shrunken log2 fold change of peptide-encoding DNA abundance (4.5 h post-induction vs induction); higher = less antimicrobial activity (less host growth inhibition)
Conditions: time post-induction: 4.5 h; library: site-saturation at positions 5, 18, 19, 20
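Also: peptides expressed intracellularly from a pBAD plasmid library in pooled LB shake-flask culture, induced with 0.3% L-arabinose, DNA abundance read by NGS, three biological replicates, DESeq2 with apeglm shrinkage.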

Sequence	shrunken log2 fold change
RRIRARPPRLPRPRPRPVSVPRP	0.137
RRIRARPPRLPRPRPRPVTTPRP	0.342
RRIRARPPRLPRPRPRPVVWPRP	0.687
RRIRARPPRLPRPRPRPVWIPRP	-0.0967
RRIRARPPRLPRPRPRPVWQPRP	0.129
RRIRARPPRLPRPRPRPWAQPRP	0.0167
RRIRARPPRLPRPRPRPWCEPRP	0.404
RRIRARPPRLPRPRPRPWCFPRP	0.0976
RRIRARPPRLPRPRPRPWDIPRP	0.173
RRIRARPPRLPRPRPRPWFMPRP	-0.108
RRIRARPPRLPRPRPRPWGDPRP	0.376
RRIRARPPRLPRPRPRPWGIPRP	-0.0125
RRIRARPPRLPRPRPRPWGSPRP	0.115
RRIRARPPRLPRPRPRPWHDPRP	-0.00134
RRIRARPPRLPRPRPRPWHLPRP	-0.0312
RRIRARPPRLPRPRPRPWHTPRP	-0.219
RRIRARPPRLPRPRPRPWHYPRP	-0.253
RRIRARPPRLPRPRPRPWINPRP	-0.218
RRIRARPPRLPRPRPRPWKLPRP	-0.36
RRIRARPPRLPRPRPRPWKTPRP	-0.0874

Sequence	shrunken log2 fold change
RRIRARPPRLPRPRPRPWLGPRP	0.417
RRIRARPPRLPRPRPRPWMEPRP	-0.0866
RRIRARPPRLPRPRPRPWMLPRP	-0.306
RRIRARPPRLPRPRPRPWNIPRP	-0.675
RRIRARPPRLPRPRPRPWRNPRP	-0.0929
RRIRARPPRLPRPRPRPWSGPRP	-0.0707
RRIRARPPRLPRPRPRPWSMPRP	-0.198
RRIRARPPRLPRPRPRPWSRPRP	-0.151
RRIRARPPRLPRPRPRPWTAPRP	0.871
RRIRARPPRLPRPRPRPWTCPRP	0.0519
RRIRARPPRLPRPRPRPWTSPRP	-0.064
RRIRARPPRLPRPRPRPWVKPRP	0.0825
RRIRARPPRLPRPRPRPWVLPRP	-0.0908
RRIRARPPRLPRPRPRPWYKPRP	-0.229
RRIRARPPRLPRPRPRPYEKPRP	-0.201
RRIRARPPRLPRPRPRPYEMPRP	-0.0385
RRIRARPPRLPRPRPRPYEVPRP	-0.0785
RRIRARPPRLPRPRPRPYEYPRP	-0.04
RRIRARPPRLPRPRPRPYGIPRP	-0.00196
RRIRARPPRLPRPRPRPYGMPRP	-0.684

Sequence	shrunken log2 fold change
RRIRARPPRLPRPRPRPYGWPRP	0.0617
RRIRARPPRLPRPRPRPYITPRP	-0.904
RRIRARPPRLPRPRPRPYKDPRP	-0.348
RRIRARPPRLPRPRPRPYLDPRP	0.118
RRIRARPPRLPRPRPRPYLFPRP	-0.494
RRIRARPPRLPRPRPRPYLHPRP	-1.18
RRIRARPPRLPRPRPRPYMEPRP	-0.348
RRIRARPPRLPRPRPRPYPFPRP	-0.63
RRIRARPPRLPRPRPRPYPRPRP	0.00693
RRIRARPPRLPRPRPRPYREPRP	-0.0268
RRIRARPPRLPRPRPRPYSAPRP	-0.256
RRIRARPPRLPRPRPRPYVWPRP	0.053
RRIRARPPRLPRPRPRPYVYPRP	-0.182
RRIRARPPRLPRPRPRPYWCPRP	-0.33
RRIRCRPPRLPRPRPRPAAKPRP	0.164
RRIRCRPPRLPRPRPRPAASPRP	0.246
RRIRCRPPRLPRPRPRPACPPRP	-0.136
RRIRCRPPRLPRPRPRPADLPRP	-0.24
RRIRCRPPRLPRPRPRPADVPRP	-0.391
RRIRCRPPRLPRPRPRPAELPRP	0.0853
